According to PMC10837013, “Synergistic induction of phytoalexins in Nicotiana attenuata by jasmonate and ethylene signaling mediated by NaWRKY70”:

Biological target: T1, NaWRKY70 (Nicotiana attenuata, UniProt A0A1J6IGI0 1-225)
T1 chain: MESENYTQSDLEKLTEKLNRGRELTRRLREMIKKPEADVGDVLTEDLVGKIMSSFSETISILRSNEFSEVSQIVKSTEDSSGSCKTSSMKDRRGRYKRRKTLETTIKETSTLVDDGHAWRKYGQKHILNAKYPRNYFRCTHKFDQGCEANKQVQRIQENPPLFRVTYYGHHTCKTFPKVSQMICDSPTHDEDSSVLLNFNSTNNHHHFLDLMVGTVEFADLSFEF
Assay: EMSA; Chemiluminescence EMSA kit (Beyotime), manufacturer's protocol; buffer, salt, pH and temperature not stated
Conditions: protein: recombinant; tags: GST (pGEX-4T-1); chain copies: 0; label: biotin

B1: NaF6'H1 mProbe 1 (dsDNA)
DNA 1: GGTCTCTTTAGCTCTACCAACTATTC
DNA 2: GAATAGTTGGTAGAGCTAAAGAGACC
binding result: no binding
